# Experimental data from patent US20220064233A1.
# B1: monoclonal antibody 61D8 (IgG) (antibody, V domains shown)
# VH: CKASGYSFTSYWMHWVKQRPGQGLEWIGMIDPSDSETKLNQQFKDKATLTVDTSSSTAYMQLTSPTSEDSVVYYCARGKMGGRFYFDYLGQGTTLTVSS
# VL: ITCKASQDVGTAVVWYQQKPGQSPKLLIYWASTRHTGVPDRFTGSGFGTDFTLTISNVQSEDLADYFCQQFSSYPYTFGGGTKLEIKR
# Target: 14R1 revertant mutant E
# Assay: ELISA, epitope mapping
binder,measurement,value
B1,fold reduction in 61D8 binding (against 14R1),30 fold
